# According to the RNAGym collection of RNA variant scans (doi:10.1073/pnas.2313332121):
# B1: TPR t1 (parent)
# chain: GACCAAUCUGCCCUCAGAGCUCGAGAACAUCUUCGGAUGCAGAGGAGGCAGGCUUCGGUGGCGCGAUAGCGCCAACGUCCUCAACCUCCAAUGCAUCCCACCACAUGAUGAUGCCUGAAGAGCCUUGGUUUUUUG
# Variants of: B1
# Test: polymerase ribozyme fitness, log enrichment relative to wild type (log ratio); higher = more active; in vitro selection for triplet polymerase activity
# In short: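 Mutant libraries of each subunit of a heterodimeric triplet polymerase ribozyme were built by PCR and transcribed. Each library went through one round of in vitro selection in triplicate: annealing with biotinylated primer, partner subunit and triplets, frozen incubation at −7 °C, gel excision of extended constructs, streptavidin-bead capture and RT-PCR. Input and output libraries were Illumina-sequenced; only genotypes with ≥10 input reads and ≥1 read per output were kept. Fitness is log2(genotype enrichment/wild-type enrichment), using inverse-variance-weighted replicate averages.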
row,Variant,polymerase ribozyme fitness (log ratio)
1,GACCAAUCUGCUCUCAGAGCUCGAGAACAUCUUCGGAUGCAGAGGAGGCAGGCUUCGGUGGUGCGAUAGCGCCAACGUCCUCAACCUCCAAUGCAUCCCACCACAUGAUGAUGCCUGAAGAGCCUUGGUUUUUUG,0.166
2,GACCAAUCUGCCCUCAGAGCUCGAGAACAUCUUCGGAUGCAGAGGAGGAAGGCUUAGGUGGCGCGAUAGCGCCAACGUCCUCAACCUCCAAUGCAUCCCACCACAUGAUGAUGCCUGAAGAGCCUUGGUUUUUUG,-0.845
3,GACCAAUCUGGCCUCAGAGCUCGAGAACAUCUUCGGAUGCAUAGGAGGCAGGCUUCGGUGGCGCGAUAGCGCCAACGUCCUCAACCUCCAAUGCAUCCCACCAAAUGAUGAUGCCUGAAGCGCCUUGGUUUUUUG,-3.09
4,GACCAAUCUGCCCUCAGAGCUCGAGAACAUCUUCGGAUGCAGAGGAGACAGGCUUCGGUGGCGCGAUAGCGCCAACGUCCUCAACCUCCAAUGCAUCCCACCACAUGAUGGUGCCUGAAGAGCCUUGGUUUUUUG,-0.578
5,GACCAAUCUGCCCUCAGAGCUCGAGAACAUCUUCGGAUGCAGAGGGGGCAGGCUUCGGUGGCGCGAUAGCGCCAACGUCCUCAACCCCCAAUGCAUCCCACCACAUGAUGAUGCCUGAAGAGCCUUGGUUUUUUG,0.254
6,GACCAAUCUGCCUUCAGAGCUCGAGAACAUCUUCGGAUGCAGAGAAGGCAGGCUUCGGUGGCGCGAUAGCGCCAACGUGCUCAACCUCCAAUGCAUCCCACCACAUGAUGAUGCCUGAAGAGCCUUGGUUUUUUG,-1.83
7,GACCAAUCUUCCCUCAGAGCUCGAGAACAUCUUCGGAUGCAGAGGAGGCAGGCUUCGGUGGAGCGAUAGCUCCAACGUCCUCAACCUCCAAUGCAUCCCACCACAUGAUGAUGCCUGAAGAGCCUUCGUUUUUUG,-0.898
8,GACCAAUCUGCCCUCAGAGCUCGAGAACAUCUUCGGAUGCAGAGGAGGCAGGCUUCGGAGGCGCGAUAGCGCCAACGUCCUCAACCUCCAAUGCAUCCCACCACAUGAUGAUGCCUGAAGAGCCGUGGUUUUUUG,-0.415
9,GACCCAUCUGCCCUCAGAGCUAGAGAACAUCUUCGGAUGCAGAGGAGGCAGGCUUCGGUGGCGCGAUAUCGCCAACGUCUUCAACCUCCAAUGCAUCCCACCACAUGAUGAUGACUGAAGAGCCUUGGUUUUUUG,-1.41
10,GACCAAUCUGCCCUCAGAGCUCGAGAACAUCUUCGGAUGCAGAGGAGGCAGGCUUCGGCGGCGCGAUAGCGCCAACGUCCCCAACCUCCAAUGCAUCCCACCACAAGAUGAUGCCUGAAGAGCCUUGGUUUUUUG,-0.294
11,GACCAAUCUGCCGUCAGUGCUCGAGAGCAUCUUCGGAUGCAGAGGAGGCAGGUUUCGGUGGCGCGAUAGUGCCAACGUCCUCAACCUCAAAUGCAUCCCACCAUAUGAUGAUGCCUGAAGAGCCUUGGUUUUUUG,-5.81
12,GACCAAUCUGCCCUCAGAGCUCGAGAACAUCUUCGGAUGCGGAGGAGGCAGGCUUUGGUGGCGCGAUAGCGGCAACGUCCUCAACCUCCAAUGCAUCCCACCACAUGAUGAUACCUGAAGAGCCUUGUUUUUUUG,-5.35
13,GACCAAUCUGCCCUCAGAGCUCGAGAACAUCUUCGGAUGCAGAGGAGGGAGGCUUCGGUGGCGCGAUAGCGCCAACGUCCUCAACCUCCAAUGCAUCCCACCACAUGAUGAUGCCUGAAAAGCCUUGGUUUUUUG,0.175
14,GACCAACCUGCCCUCAGAGCUCGAGAACAUCUUCGGAUGCAGAGGAGGCAGGCUUCGGUGGCGCGAUAGCACCAACGUCCUCAACCUCCAAUGCAUCCCACCACAUGAUGAUGCCUGAAGAGCCUUGGUUUUUUG,-0.421
15,GACCAAUCUGCCCUCAGAGCUCGAGAACAUCUUCGGAUGCAAAGGAGGCAGGCUUCGGUGGCGCGAUAGCGUCAACGUCCUCAAUCUCCAAUGCAUCCCACCACAUGAUGAUGCCUGAAGAGCCUUGGUUUUUUG,-2.92
16,GACCAAUCUGCCCUCAGAGUUCGAGAACAUCUUCGGAUGCAGAGGAGGCAGGCUUCGGUGGCGCGAUAGCGCCAACGUCCUCAACCUCCAAUACAUCCCAGCACAUGAUGAUCCCUGAAGAGCCUUGGUUUUUUG,-4.09
17,GACCAAUCUACCCUCAGAGCUCGAGAACAUCUUCGGAUGCAGAGGAGGGAGGCUUCGGUGGCUCGAUAGCGCCAACGUCCUCAACCUCCAAUGCAUCCCACCACAUGAUGAUGCCUGAAGAGCCUUGGUUUUUUG,-0.848
18,GACCAAUCUGCCCUCAGAGCUCGAGAACAUCUUCGGAUGCAGAGGAGGCAGGCUUCGGUGGCGCGAUAGCGCCUACGUCCUCAACCUCCAAUGCAUCCCAUCACAUGAUGAUGCCUGAAGAGCCUUGGUUUUUUG,-0.51
19,GACCAAUCUGCCCUCAGAGCUCGAGAACAUCUUCGGAUGCAGAGGAGUCAGGCUGCGGUGGCGCGAUAGCGCCAACGUCCUCAACCUCCAAUGCAUCCCACCACAUGAUGAAGCCUGAAGAGCCUUGGUUUUUUG,0.525
20,GACCAAUCUGGCCUCAGAGCUCGAGAACAUCUUCAGAUGCAGAGGAGGCAGGCUUCGGUCGCGCGAUAGCGCCAACGUCCUCAACCUCCAAUGCAUCUCACCACAUGAUGAUGCCUGAAGAGCCUUGGUUUUUUG,-1.01
21,GACCAAUCUGCUCUCAGAGCUCGAGAACAUCUUCGGCUGCAGAGGUGGCAGGCUUCGGUGGAGCGAUAGCGCCAACGUCCUCAACCUCCAAUGCAUCCCACCACAUGAUGAUGCCUGAAGAGCCUUGGUUUUUUG,-2.96

row,Variant,polymerase ribozyme fitness (log ratio)
1,GACCAAUCUGCACUCAGAGCUCGAGAACAUCUUCGGAUGCAGAGGAGGCAGGCUUCGGUGGCGCGAUAGCGCCAACGUCCUCAACCUCCAAGGCAUCCCACCACAUGAUGAUGCCUGAAGAGCCUUGAUUUUUUG,-5.4
2,GACCAAUCUGCCCUCAGAGCUCGAGAACAUCUUCGGAUGCAGAGGAGGCAGGCUUCGGUGGCGCGAUAGCGCGAACGUCCUCAACCUCCAAUGCAUCCCACCAGAUGAUGAUGCCUGAAGGGCCUUGGUUUUUUG,-5.73
3,GACCAAUCUGCCCUCAGAGCUCGAGAACAUCUUCGGAUGCAGAGGAGGCAGGCUUCGGUGGCGCGAUAGCGCCAACGUCCUCAACCUCCAAUGCAUCCCAACACAUAAUGAUGCCUGAAGAGCCUUGGUUUUUUG,-5.93
4,GACCAAUCUGCCCUCAGAGCUCGAGAACAUCUUCGGAUGCAGAGGAGGUAGGCUUCGGUGGCGCGAUAGCGCCAACGUCCUCAACCUCCAAUGCAUCCCACCACAUGAUGAUGCCUGAUGAGCCUUGGUUUUUUG,-0.961
5,GACCAAUCUGCCCUCAGAGCUCGAGAACAUCUUCGGAUGCAGAGGAGGCAGGCUUCGGUGGCGCGAUAGCGCCAACGUACUCAACCUCCAAUGCAUCCCACCACAUGAUGAUGCCUGAAGUGCCUUGGUUUUUGG,2.45
6,GACCAAACUGCCCUCAGAGCUCGAGAACAUCUUCGGAUGCAGAGGAGGUAGGCUUCGGUGGCGCGAUAGCGCCAACGUCCUCAACCUCCAAUGCAUCCCACCACAUGAUGAUGCCUGAAGAGCCUUGGUUUUUUG,0.388
7,GACCAAUCUGCCCUCAGAGGUCGAGAACAUCUUCGGAUGCAGAGGAGGCAGCCUUCGGUGGCGCGAUAGCGCCAACGUCCUCAACCUCCAAUGCGUCCCACAACAUGAUGAUGCUUGAAGAGCCUUGGUUUUUUG,-6.79
8,GACCAAUCUGCCCUCAGAGCUCGAGAACAUCUUCGGAUGCAGAGGACGCAGGCUUCGGUGGCGCGAUAGCGCCAACGUCUUCAACCUCCAAUGCAUCCCACCACAUGAUGAUGCCUGAAGAGCCUUGGUUUUUUG,-3.51
9,GACCAAUCUGCCCUCAGAGCUCGAGAACAUCUUCGGAUGCAGAGGAGGCAGGCUUCGGUGGCGCGAUAGCGCCAACGUCCUCAACCUCCAAUGCAGCCCACCACAUGAUGAUGCCUGAAGAGCCUUGGUGUUUUG,-1.28
10,GACCAAUCUGCCCUCAUAGCUCGAGAACAUCUUCGGAUGCAGAGGAGGCAGGCUACGGUGGCGCGAUAGCGCCAACGUCCUCAACCUCCAAUGCAUCCCACCACAUGAUGAAGGCUGAACAGCCUUGGUUUUUUG,-5.87
11,GACCAAUCUGCCCUCAGAGCUCGAGAACAUCUUCGGAUGCAGAGGAGGCAGGCUUCGGUGGCGCGAUAGCGCCAACGUCUUCAACCUCCAAUGCAUCCCACCACAUGAUGAUCCCUGAAGAGCCUUGGUUUUUUG,-3.19
12,GACCAAUCUGCCCCCAGAGCUCGAGAACAUCUUCGGAUGCAGAGGAGGCAGGCUUCGGUCGCGCGAUAGCGCCAACGUCCUCAACCUCCAAUGCAACCCACCACAUGAUGAUGCCUGAAGAGCCUUGGUUUUUUG,-3.46
13,GACAAAUCUGCCCUCAGAGCUCGAGAACAUCUUCGGAUGCAGAGGAGGCAGGCUUAGGUGGCGCGAUAGCGCCAACGUCCUCAACCUCCAAUGCAUCCCACCACAUGAUGAUGCCUGAAGAGCCUUGGUUUUUUG,-2.53
14,GACCAAUCUGCCCUCAGAGCUCGAGAACAUCUUCGGAUGCAGAGGAGGCAGGCUUCGGUGGCGCGAUAGCGCCAACGUCCUCAACAUCCAAUGCAUCCUAUCACAUGAUGAUGCCUGAAGGUCCUUGGUUUUUUG,-1.38
15,GACCAAUCUGCCCUCAGAGCUCGAGAACAUCUUCGGAUGCAGAGGAGGGAGGCUUCGGUGGCGCGAUAGCACCAACGUCCUCAACCUCCAAUGCAUCCCACCACAUGAUGAUGCCUGAAGAGCCUUGGUUUUUUG,-0.461
16,GACCAAUCUGCCCUCAGAGCUCGAGAACAUCUGCGGAUGCAGAGGAGGCAGGCUUCGGUGGCGAGAUAGCUCCAACGUCCUCAACCUCCAAUGCAUCCCACCACAUGAUGAAGCCUGAAGAGCCUUGGUUUUUUG,-7.32
17,GACCUAUCUGCCUUCAGAGCUCGAGAACAUCUUCGGAUGCAGAGGAAGCAGGCUUCGGUGGCUCGAUAGCGCCAACGUCCUCAACCUCCAUUGCAUCCCACCACAUGACGAUGCCUGAAGAGCCUUCGUUUUUUG,-6.28
18,GACCAAUCUGCCCUCAGAGCUCGAGAGCAUCUUCGGAUGCAGAGAAGGCAGGCUUCGGUGGCGCGAUAGCGCCAACGUCCUCGACCUCCAAUGCAUCCCACCACAUGAUGAUGCCUGAAGAGCCUUGGUGUUUUG,-4.37
19,GACCAAUCUGCCCUCAGAGAUCGAGAACAUCUUCGGAUGCAGAGGAGGCAGGCUUCGGUGGCGCGAUAGCGCCAACGUCCUCAACGUCUAAUGCAUCCCACCACAUGAUGAUGCCUGAUGAGCCUUGGUUUUUUG,-6.11
20,GACCAAUCUGCCCUCAGAGCUCGAGAACAUCUUCGGAUGCAGAGGAGGCAGGCUUCGGUGGCGCGAUAGCGCCAACGUCCUCAACCUCCAAUGCAUCCCACCACAUGAUGAUGCAUGAAGAGCCGUGGUUUUUUG,0.221
21,GACCAAUCUGCCCUCAGAGCUCGAGAACAUCAUCGGAUGCAGAGGAGGCGGGCUUCGGUGGCGCGAUAGCGCCAACGUCCUCAAUCACCAAUGCAUCCCACCACAUGAUGAUGCCUGAAGAGCCUUGGUUUUUUG,-4.8
